In the supplement of paper PMC9170038:

Columns and labels:
MS2 coat protein [1] = assay: apparent KD of MS2 coat protein, switch OFF state (with FMN for OFF switches, without FMN for ON switches); designed switch direction (-1 OFF switch, 1 ON switch): 1; higher = weaker reporter binding; conditions: FMN input: 0 or 200 uM; Eterna round: R93 (includes R88 designs)
Method in brief: (§1)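 On-chip transcription from Illumina sequencing clusters produced the designed RNA switches. These were titrated with SNAP-549-labelled MS2 coat protein (twofold steps, 0.7 or 1.5 nM to 3 µM) in 100 mM Tris-HCl pH 7.5, 80 mM KCl, 4 mM MgCl2, with or without constant ligand. The apparent KD given is the per-design median of normalised cluster binding-curve fits.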

MS2 coat protein [2] = assay: apparent KD of MS2 coat protein, switch ON state; designed switch direction (-1 OFF switch, 1 ON switch): 1; higher = weaker reporter binding; conditions: FMN input: 0 or 200 uM; Eterna round: R93 (includes R88 designs)
Method in brief: as §1

Row | Sequence | apparent KD of MS2 coat protein (MS2 coat protein [1]) [nM] | apparent KD of MS2 coat protein (MS2 coat protein [2]) [nM]
1 | GGAGCCGGUACUGAGGAUAUUCAUAUUAAAACAUGAGGAUCACCCAUGUAGGCCAGAAGGCCUUGGGAGAAGGCAGAUCGGCUCC [Biceusra] | 266 | 20.4
2 | AAUAAUUAUACGAAGGAUAUCGGUAAUUAGACAUGAGGAUCACCCAUGUAAUAAGGUUAAAUAAACGAGAAGGUCGAGGGUGAAA [JR_SS002_Sub501] | 41.5 | 66.9
3 | AUGAAGGAGAGAGAGGAUAUCCAAAGGGAAACAUGAGGAUCACCCAUGUAGAAGGUAGGAAAUUGGGAGAAGGCUCAAGAGAGAG [salish99-ss2-111] | 26.9 | 25.4
4 | GUCCAACAUGAGGAUCACCCAUGUGCAUGACACUGAGGAUAUGGGACUAAAGGUGCUGGACCAGAAGGCAGAAGAA [Diatquorbi] | 94.9 | 48.3
5 | AAUACACAUGGUCAGGAUAUCGCAGCUAGGACAUGAGGAUCACCCAUGUCGCACGUAACCGUAACCGAGAAGGGACAGGGUGACC [JR_SS002_Sub409] | 15.2 | 36.9
6 | AAAAAACAUGAGGAUCACCCAUGUCGAAAGACGUGAGGAUAUGUACAGACUUCGGUCUGUACAGAAGGCACGAAAA [SS1 - 1038] | 60.4 | 18.5
7 | UCAGAACCGACAAAGGAUAUAGCGGGUGAGACAUGAGGAUCACCCAUGUAUGCAGAACUCAUCCUCUAGAAGGUUGAGACGGAUA [Maedanon] | 93.6 | 213
8 | AAAAAAUAAAAAAAGGAUAUAAAAGGUAGUACAUGAGGAUCACCCAUGUUCUACCAAAAAAUAAAAAAGAAGGAAAAAUAAAAAA [SS2: MS2 15] | 16.4 | 17.6
9 | GACUGACAUGAGGAUCACCCAUGUAUUCGAGCAUGAGGAUAUAUGACACGUCAUCGACGGAUAGAAGGCAUGGAUG [JR_SS001_Sub1211] | 208 | 232
10 | AGAAAUAAAAGAGAGGAUAUCUCAAAGAAAACAUGAGGAUCACCCAUGUAAAAGAAAAUAAAAUGGGAGAAGGCUCAUAAUAAAG [JL Skelter Mod 5 In the Red] | 133 | 54.3
11 | UGGAGACAUGAGGAUCACCCAUGUGAGAAGAGGCGAGGAUAUCGAAAGAAAGAAGAGAAACGAGAAGGCGCGAGCA [salish99-SS1-040] | 40.2 | 25.9
12 | AAGAAAAAAAGGCAGGAUAUCCAAAAAAAAACAUGAGGAUCACCCAUGUAAAAAUAAAAAAAAUGGGAGAAGGGCCAAAAAAGAA [Mat - Same State 2 - Mod - 154] | 22.1 | 13.8
13 | GAAAAACAUGAGGAUCACCCAUGUAGAAAUAUGGGAGGAUAUACAAAGACGAGAGUCAAAGUAGAAGGCCUAAAAG [Mat - Same State 1 - Eli mod - D9] | 86.7 | 28.4
14 | GACAAACAUGAGGAUCACCCAUGUAGACAUAUGGGAGGAUAUACACAGACGAAAGUCAAAGUAGAAGGCCUACAAG [77%, Mat - Mod of Eli - With 4 more C's] | 91.3 | 29.3
15 | AGCAUGCGAUAUAAGGAUAUGUUGUUUGCAACAUGAGGAUCACCCAUGUUUGAGGCUGAAAAGCAGCAGAAGGUAUAUACAAGCA [SS2-1.0] | 13 | 9.45
16 | AAAUAAAGGACUGAGGAUAUACCACAUGAAACAUGAGGAUCACCCAUGUAGAAAUACAGAGGGUGGUAGAAGGCAGUCCACAAAC [Same State 2.5h ( so lets mod hyphema)] | 57.2 | 30.1
17 | AGAGUAAACAGAGAGGAUAUCCAAUAGAAAACAUGAGGAUCACCCAUGUGAAAGAUAAUAAAAUGGGAGAAGGCUCACAAUAAGA [Topaz 43] | 49.4 | 24.6
18 | UAACAACAUGAGGAUCACCCAUGUCAAACAAAUCGAGGAUAUGGGCAGGAUUCUUCCUAUCUAGAAGGCGAAAACA [Ricexebi] | 83.2 | 145
19 | GGGAGACAUGAGGAUCACCCAUGUGAGAAGAGGCGAGGAUAUCGAAAGAAAGAAGAGAAACGAGAAGGCGCGAGAA [salish99-SS1-049] | 64.4 | 37
20 | AACAAUCUAUCUGAGGAUAUCAUGUCAAAGACAUGAGGAUCACCCAUGUGCAGGAAAACUGCUCAUGAGAAGGCAGAUAGAUUGA [SS2: 1110] | 167 | 464
21 | AGGAGACAUGAGGAUCACCCAUGUGAGAAGAGGCGAGGAUAUCGAAAGAAAGAAGAGAAACGAGAAGGCGCGAGGG [salish99-SS1-027] | 39.2 | 26.9
22 | AAAUAAAGGACUGAGGAUAUACCACAUGAAACAUGAGGAUCACCCAUGUUAAAAAACAGAGGGUGGUAGAAGGCAGUCCACAAAC [Same State 2.5e ( so lets mod hyphema)] | 15.8 | 17.9

Row | Sequence | apparent KD of MS2 coat protein (MS2 coat protein [1]) [nM] | apparent KD of MS2 coat protein (MS2 coat protein [2]) [nM]
23 | UAAGACGUGCAUCAGGAUAUGUUCCGAGGCACAUGAGGAUCACCCAUGUGGACGAAGCCUCGGGCACAGAAGGGAUCACUCAGAC [Laarma] | 20.4 | 17.2
24 | AAAGAAGAAAGUCAGGAUAUGGAUGGGUAAACAUGAGGAUCACCCAUGUAUAAGAAAGAAAGAAACCAGAAGGGACAAAAGAAAA [Artaxerxes III] | 135 | 34.6
25 | AACAACAAUAUGAAGGAUAUCCACAACAAGACAUGAGGAUCACCCAUGUAAACUUAGAACAUACAGGAGAAGGUCAAGGGUGAAU [JR_SS002_Sub1204] | 63.2 | 221
26 | AACAAUCUAUCUGAGGAUAUCAUGUCAAAGACAUGAGGAUCACCCAUGUAGCAGGAAACUGCUUAUGAGAAGGCAGAUAGAUUGA [SS2: 1114] | 450 | 69.4
27 | AGAAAUAAAGGAGAGGAUAUCCAAAAGAAAACAUGAGGAUCACCCAUGUAAAAGAAAAUAAAAUGGGAGAAGGCUUCAAAUAAGA [Starry modified V4] | 46.4 | 52.3
28 | UUCUCCACUAGCAAGGAUAUCUAAAACUAAACAUGAGGAUCACCCAUGUGACGACCACACGUAUCAGAGAAGGUGCAGGGUGUAU [JR_SS002_Sub308] | 42.5 | 45.4
29 | AGGUAACAUGAGGAUCACCCAUGUACCGAUAAUGCAGGAUAUCGACACGAAAAUACGUGUCGAGAAGGGCAUGAAA [SS1 MT 23] | 13.5 | 14.3
30 | AAACCACAUGAGGAUCACCCAUGUGAAAAAAAUACAGGAUAUGGAAACACGAAAGUGAAACCAGAAGGGUGAAAAA [77%, Mat - Mod of Eli, 28] | 16.6 | 13.4
31 | AAAAAAAAAGUCGAGGAUAUCCACAUGGUGACAUGAGGAUCACCCAUGUGAAGAAAAGCACAUGAGGAGAAGGCGACAAAAAAAA [Same State 2.7b (Tightrope mod)] | 1110 | 135
32 | GUGGUGCAGGUACAGGAUAUGUUGCUCGUAACAUGAGGAUCACCCAUGUACCUAUGAGAUUAAAUGCAGAAGGGUGCACACCACG [Edtiditele] | 208 | 28.4
33 | AAAAAAAAAACUCAGGAUAUAGAUUGUUGAACAUGAGGAUCACCCAUGUAGUGAAAAGCGAAAAACUAGAAGGGAGGAAAAAAAAA [SameState2-03] | 63.3 | 30.5
34 | CGGAGACAUGAGGAUCACCCAUGUGAGAAGAGGCGAGGAUAUCGAAAGAAAGAAGAGAAACGAGAAGGCGCGAGAA [salish99-SS1-065] | 32.8 | 20.4
35 | CGGAGACAUGAGGAUCACCCAUGUGAGAAGAGGCGAGGAUAUCGAAAAAAAAAAAAAAAACGAGAAGGCGCGAGAU [salish99-SS1-013] | 36.2 | 34
36 | AAAAAACAUGAGGAUCACCCAUGUCAAAAGACGUGAGGAUAUGUACAGACUUCGGUCUGUACAGAAGGCACGUAAA [SS1 - 1039] | 25.7 | 15.7
37 | GGAGCCGGCACCGAGGAUAUUCAUAUUAAAACAUGAGGAUCACCCAUGUAGGCCAGAAGGCCUUGGGAGAAGGCGGAUCGGCUCG [Xeonanis] | 481 | 29.9
38 | GAAAAACAUGAGGAUCACCCAUGUGAGAAUAUGGAAGGAUAUACAAAGACGAAAGUCAAAGUAGAAGGUCUAAAAG [Mat - Same State 1 - Eli mod - D15] | 20.5 | 28.9
39 | CAUAGACAUGAGGAUCACCCAUGUAGAAUUAUGGGAGGAUAUACAAAGACGAGAGUCAGAGUAGAAGGCCUAGGAA [salish99-ss1-160] | 38.6 | 20.2
40 | AAAAGACAUGAGGAUCACCCAUGUAAAGACGUAGGAGGAUAUGUCGUGAAAAAAGACUUGGCAGAAGGCCUGUGUC [SS1 - 40] | 26.6 | 21.4
41 | GAAAAACAUGAGGAUCACCCAUGUAAAAAUAUGGGAGGAUAUACAAAGACGAAAGUCAAAGUAGAAGGCCUAAAAG [77%, Mat - Mod of Eli, 3] | 59.7 | 24.4
42 | AGGAAACAUGAGGAUCACCCAUGUAAAAAUAUGGGAGGAUAUACAAAGACGAAAGUCAAAGUAGAAGGCCUAAAAG [77%, Mat - Mod of Eli, 4] | 60.1 | 21.4
43 | GAAAAACAUGAGGAUCACCCAUGUAAGAUAAACACAGGAUAUGCGAAAAUAAAUAAAUAAGCAGAAGGGUGAAAAG [Mat - Same State 1 - Tesla mod - 78] | 37.4 | 25.7
